{"source": "patent US20260139033A1", "about": "(PRANA THERAPIES, published 2026)", "binders": {"B1": {"name": "Candidate-5 (TRAP-2) (other)", "heavy chain with C-terminal TSLP TRAP 2 (palivizumab-YTE heavy chain, first linker, TSLP-TRAP)": "QVTLRESGPALVKPTQTLTLTCTFSGFSLSTSGMSVGWIRQPPGKALEWLADIWWDDKKDYNPSLKSRLTISKDTSANQVVLKVTNMDPADTATYYCARSMITNWYFDVWGAGTTVTVSSASTKGPSVFPLAPCSRSTSESTAALGCLVKDYFPEPVTVSWNSGALTSGVHTFPAVLQSSGLYSLSSVVTVPSSSLGTKTYTCNVDHKPSNTKVDKRVESKYGPPCPPCPAPEFLGGPSVFLFPPKPKDTLYITREPEVTCVVVDVSQEDPEVQFNWYVDGVEVHNAKTKPREEQFNSTYRVVSVLTVLHQDWLNGKEYKCKVSNKGLPSSIEKTISKAKGQPREPQVYTLPPSQEEMTKNQVSLTCLVKGFYPSDIAVEWESNGQPENNYKTTPPVLDSDGSFFLYSRLTVDKSRWQEGNVFSCSVMHEALHNHYTQKSLSLSLGGGGGSGGGGSGGGGSGGGGSESGYAQNGDLEDAELDDYSFSCYSQLEVNGSQHSLTCAFEDPDVNITNLEFEICGALVEVKCLNFRKLQEIYFIETKKFLLIGKSNICVKVGEKSLTCKKIDLTTIVKPEAPFDLSVVYREGANDFVVTFNTSHLQKKYVKVLMHDVAYRQEKDENKWTHVNLSSTKLTLLQRKLQPAAMYEIKVRSIPDHYFKGFWSEWSPSYYFRTPEINNSSGEMDGGSGGSGGSGGSGGSGGSGGSGGSGGSGGSGGSGGSGGSGGSGGSGGSGGSGGSGGSGGSGAAEGVQIQIIYFNLETVQVTWNASKYSRTNLTFHYRFNGDEAYDQCTNYLLQEGHTSGCLLDAEQRDDILYFSIRNGTHPVFTASRWMVYYLKPSSPKHVRFSWHQDAVTVTCSDLSYGDLLYEVQYRSPFDTEWQSKQENTCNVTIEGLDAEKCYSFWVRVKAMEDVYGPDTYPSDWSEVTCWQRGEIRDACAETPTPPKPKLSK", "light chain": "DIQMTQSPSTLSASVGDRVTITCKCQLSVGYMHWYQQKPGKAPKLLIYDTSKLASGVPSRFSGSGSGTAFTLTISSLQPDDFATYYCFQGSGYPFTFGGGTKLEIKRTVAAPSVFIFPPSDEQLKSGTASVVCLLNNFYPREAKVQWKVDNALQSGNSQESVTEQDSKDSTYSLSSTLTLSKADYEKHKVYACEVTHQGLSSPVTKSFNRGEC", "notes": "Monospecific TSLP-TRAP complex on palivizumab (human IgG4 S228P, YTE)"}, "B2": {"name": "Candidate-23: Dupilumab-YTE_Linker-GS4_TSLP TRAP 1 (bispecific antibody, human IgG4 S228P, kappa)", "heavy": "EVQLVESGGGLEQPGGSLRLSCAGSGFTFRDYAMTWVRQAPGKGLEWVSSISGSGGNTYYADSVKGRFTISRDNSKNTLYLQMNSLRAEDTAVYYCAKDRLSITIRPRYYGLDVWGQGTTVTVSSASTKGPSVFPLAPCSRSTSESTAALGCLVKDYFPEPVTVSWNSGALTSGVHTFPAVLQSSGLYSLSSVVTVPSSSLGTKTYTCNVDHKPSNTKVDKRVESKYGPPCPPCPAPEFLGGPSVFLFPPKPKDTLYITREPEVTCVVVDVSQEDPEVQFNWYVDGVEVHNAKTKPREEQFNSTYRVVSVLTVLHQDWLNGKEYKCKVSNKGLPSSIEKTISKAKGQPREPQVYTLPPSQEEMTKNQVSLTCLVKGFYPSDIAVEWESNGQPENNYKTTPPVLDSDGSFFLYSRLTVDKSRWQEGNVFSCSVMHEALHNHYTQKSLSLSLGGGGGSGGGGSGGGGSGGGGSGAAEGVQIQIIYFNLETVQVTWNASKYSRTNLTFHYRFNGDEAYDQCTNYLLQEGHTSGCLLDAEQRDDILYFSIRNGTHPVFTASRWMVYYLKPSSPKHVRFSWHQDAVTVTCSDLSYGDLLYEVQYRSPFDTEWQSKQENTCNVTIEGLDAEKCYSFWVRVKAMEDVYGPDTYPSDWSEVTCWQRGEIRDACAETPTPPKPKLSKGGSGGSGGSGGSGGSGGSGGSGGSGGSGGSGGSGGSGGSGGSGGSGGSGGSGGSGGSGGSESGYAQNGDLEDAELDDYSFSCYSQLEVNGSQHSLTCAFEDPDVNITNLEFEICGALVEVKCLNFRKLQEIYFIETKKFLLIGKSNICVKVGEKSLTCKKIDLTTIVKPEAPFDLSVVYREGANDFVVTFNTSHLQKKYVKVLMHDVAYRQEKDENKWTHVNLSSTKLTLLQRKLQPAAMYEIKVRSIPDHYFKGFWSEWSPSYYFRTPEINNSSGEMD", "light": "DIVMTQSPLSLPVTPGEPASISCRSSQSLLYSIGYNYLDWYLQKSGQSPQLLIYLGSNRASGVPDRFSGSGSGTDFTLKISRVEAEDVGFYYCMQALQTPYTFGQGTKLEIKRTVAAPSVFIFPPSDEQLKSGTASVVCLLNNFYPREAKVQWKVDNALQSGNSQESVTEQDSKDSTYSLSSTLTLSKADYEKHKVYACEVTHQGLSSPVTKSFNRGEC", "notes": "The chains here are built from the component entries; TRAP sits at the C-terminus of the heavy chain"}, "B3": {"name": "Candidate-24: Dupilumab-YTE_Linker-GS4_TSLP TRAP 2 (bispecific antibody, human IgG4 S228P, kappa)", "heavy": "EVQLVESGGGLEQPGGSLRLSCAGSGFTFRDYAMTWVRQAPGKGLEWVSSISGSGGNTYYADSVKGRFTISRDNSKNTLYLQMNSLRAEDTAVYYCAKDRLSITIRPRYYGLDVWGQGTTVTVSSASTKGPSVFPLAPCSRSTSESTAALGCLVKDYFPEPVTVSWNSGALTSGVHTFPAVLQSSGLYSLSSVVTVPSSSLGTKTYTCNVDHKPSNTKVDKRVESKYGPPCPPCPAPEFLGGPSVFLFPPKPKDTLYITREPEVTCVVVDVSQEDPEVQFNWYVDGVEVHNAKTKPREEQFNSTYRVVSVLTVLHQDWLNGKEYKCKVSNKGLPSSIEKTISKAKGQPREPQVYTLPPSQEEMTKNQVSLTCLVKGFYPSDIAVEWESNGQPENNYKTTPPVLDSDGSFFLYSRLTVDKSRWQEGNVFSCSVMHEALHNHYTQKSLSLSLGGGGGSGGGGSGGGGSGGGGSESGYAQNGDLEDAELDDYSFSCYSQLEVNGSQHSLTCAFEDPDVNITNLEFEICGALVEVKCLNFRKLQEIYFIETKKFLLIGKSNICVKVGEKSLTCKKIDLTTIVKPEAPFDLSVVYREGANDFVVTFNTSHLQKKYVKVLMHDVAYRQEKDENKWTHVNLSSTKLTLLQRKLQPAAMYEIKVRSIPDHYFKGFWSEWSPSYYFRTPEINNSSGEMDGGSGGSGGSGGSGGSGGSGGSGGSGGSGGSGGSGGSGGSGGSGGSGGSGGSGGSGGSGGSGAAEGVQIQIIYFNLETVQVTWNASKYSRTNLTFHYRFNGDEAYDQCTNYLLQEGHTSGCLLDAEQRDDILYFSIRNGTHPVFTASRWMVYYLKPSSPKHVRFSWHQDAVTVTCSDLSYGDLLYEVQYRSPFDTEWQSKQENTCNVTIEGLDAEKCYSFWVRVKAMEDVYGPDTYPSDWSEVTCWQRGEIRDACAETPTPPKPKLSK", "light": "DIVMTQSPLSLPVTPGEPASISCRSSQSLLYSIGYNYLDWYLQKSGQSPQLLIYLGSNRASGVPDRFSGSGSGTDFTLKISRVEAEDVGFYYCMQALQTPYTFGQGTKLEIKRTVAAPSVFIFPPSDEQLKSGTASVVCLLNNFYPREAKVQWKVDNALQSGNSQESVTEQDSKDSTYSLSSTLTLSKADYEKHKVYACEVTHQGLSSPVTKSFNRGEC", "notes": "as for B2"}, "B4": {"name": "dupilumab (antibody, V domains shown)", "VH": "EVQLVESGGGLEQPGGSLRLSCAGSGFTFRDYAMTWVRQAPGKGLEWVSSISGSGGNTYYADSVKGRFTISRDNSKNTLYLQMNSLRAEDTAVYYCAKDRLSITIRPRYYGLDVWGQGTTVTVS", "VL": "DIVMTQSPLSLPVTPGEPASISCRSSQSLLYSIGYNYLDWYLQKSGQSPQLLIYLGSNRASGVPDRFSGSGSGTDFTLKISRVEAEDVGFYYCMQALQTPYTFGQGTKLEIK"}, "B5": {"name": "Candidate-25 (TRAP-2) (bispecific antibody, human IgG4 S228P, kappa)", "heavy chain": "EVQLVESGGGLEQPGGSLRLSCAGSGFTFRDYAMTWVRQAPGKGLEWVSSISGSGGNTYYADSVKGRFTISRDNSKNTLYLQMNSLRAEDTAVYYCAKDRLSITIRPRYYGLDVWGQGTTVTVSSASTKGPSVFPLAPCSRSTSESTAALGCLVKDYFPEPVTVSWNSGALTSGVHTFPAVLQSSGLYSLSSVVTVPSSSLGTKTYTCNVDHKPSNTKVDKRVESKYGPPCPPCPAPEFLGGPSVFLFPPKPKDTLYITREPEVTCVVVDVSQEDPEVQFNWYVDGVEVHNAKTKPREEQFNSTYRVVSVLTVLHQDWLNGKEYKCKVSNKGLPSSIEKTISKAKGQPREPQVYTLPPSQEEMTKNQVSLTCLVKGFYPSDIAVEWESNGQPENNYKTTPPVLDSDGSFFLYSRLTVDKSRWQEGNVFSCSVMHEALHNHYTQKSLSLSLG", "light chain with N-terminal TSLP TRAP 2 (TSLP-TRAP, first linker, dupilumab-YTE light chain)": "ESGYAQNGDLEDAELDDYSFSCYSQLEVNGSQHSLTCAFEDPDVNITNLEFEICGALVEVKCLNFRKLQEIYFIETKKFLLIGKSNICVKVGEKSLTCKKIDLTTIVKPEAPFDLSVVYREGANDFVVTFNTSHLQKKYVKVLMHDVAYRQEKDENKWTHVNLSSTKLTLLQRKLQPAAMYEIKVRSIPDHYFKGFWSEWSPSYYFRTPEINNSSGEMDGGSGGSGGSGGSGGSGGSGGSGGSGGSGGSGGSGGSGGSGGSGGSGGSGGSGGSGGSGGSGAAEGVQIQIIYFNLETVQVTWNASKYSRTNLTFHYRFNGDEAYDQCTNYLLQEGHTSGCLLDAEQRDDILYFSIRNGTHPVFTASRWMVYYLKPSSPKHVRFSWHQDAVTVTCSDLSYGDLLYEVQYRSPFDTEWQSKQENTCNVTIEGLDAEKCYSFWVRVKAMEDVYGPDTYPSDWSEVTCWQRGEIRDACAETPTPPKPKLSKGGGGSGGGGSGGGGSGGGGSDIVMTQSPLSLPVTPGEPASISCRSSQSLLYSIGYNYLDWYLQKSGQSPQLLIYLGSNRASGVPDRFSGSGSGTDFTLKISRVEAEDVGFYYCMQALQTPYTFGQGTKLEIKRTVAAPSVFIFPPSDEQLKSGTASVVCLLNNFYPREAKVQWKVDNALQSGNSQESVTEQDSKDSTYSLSSTLTLSKADYEKHKVYACEVTHQGLSSPVTKSFNRGEC", "notes": "also called Light chain N-terminal TRAP: TSLP TRAP 2_Linker-GS4_Dupilumab-YTE [2 x TRAP 2]"}}, "key": {"recombinant human TSLP [1]": {"target": "T1, recombinant human TSLP (human, UniProt Q969D9 29-159)", "T1 construct": "also called thymic stromal lymphopoietin", "assay": "SPR (Biacore 3000, CM5 chip, 25 C): complex captured via protein A, TSLP as analyte, 1:1 fit; column 'TSLP binding(pM)'", "description": "(§1) SPR studies were carried out on a Biacore 3000 instrument with a CM5 chip at 25° C. The running buffer comprised 25 mM Hepes, pH 7.5, 150 mM NaCl, 0.5 mg/ml BSA, 0.005% P20. Antibodies were captured via protein A using approximately a 1/50 dilution of each antibody in the running buffer and a 2-minute contact time at a 10 μl/min flow rate. Protein A was immobilized on a CM5 chip via standard amine coupling chemistry in 10 mM acetate pH 4.5. Approximately 800 RU of each antibody was captured. The surfaces were regenerated via a 10 mM glycine pH 1.5 between cycles. Between assays the chip was regenerated with a 2-minute pulse of 100 mM Phosphoric acid. Prior to setting up multicycle kinetic analysis analyte concentration was determined spectrophotometrically using an extinction coefficient of 72,880 M⁻¹ cm⁻¹ for IL4R and 18450 M⁻¹ cm⁻¹ for the TSLP proteins respectively. Analyte samples were prepared by diluting stocks into running buffer to a final concentration of 500 nM for the IL-4R and 25 nM for TSLP followed by serially diluting with a 2-fold series with an association time of 2.5 minutes at a 50 μl/min flow rate. Dissociation data was collected for a period of 1600 seconds. Raw data was analyzed using the Scrubber2 (Biologic Software, AU) program using a double referencing procedure where compound signal is corrected to a blank surface and a buffer injection over the captured antibody surface. Kinetic data was analyzed by fitting to a simple 1:1 binding model. […] The candidates are further described in Table 3."}, "[2]": {"target": "IL-4R on human donor PBMC (B-cells) (human, UniProt P24394 26-825)", "assay": "cell-based or functional assay"}, "recombinant human TSLP [3]": {"target": "T1, recombinant human TSLP", "assay": "cell-based or functional assay"}, "recombinant human TSLP [4]": {"target": "T1, recombinant human TSLP", "assay": "SPR; column 'SPR (Biophysical binding): TSLP (pM)'", "description": "as §1"}}}
{"binder": "B1", "values": [{"measurement": "Kd", "setting": "recombinant human TSLP [1]", "result": 0.0013, "unit": "nM"}]}
{"binder": "B2", "values": [{"measurement": "Kd", "setting": "recombinant human TSLP [1]", "result": 0.0259, "unit": "nM"}, {"measurement": "IC50, upregulation of CD23 in response to IL-4 in PBMCs", "setting": "[2]", "result": 17.1, "unit": "nM"}, {"measurement": "IC50, TARC secretion in response to TSLP in PBMCs", "setting": "recombinant human TSLP [3]", "result": 1.7, "unit": "nM"}, {"measurement": "Kd", "setting": "recombinant human TSLP [4]", "result": 0.0259, "unit": "nM"}]}
{"binder": "B3", "values": [{"measurement": "Kd", "setting": "recombinant human TSLP [1]", "result": 0.0168, "unit": "nM"}, {"measurement": "IC50, upregulation of CD23 in response to IL-4 in PBMCs", "setting": "[2]", "result": 12.5, "unit": "nM"}, {"measurement": "IC50, TARC secretion in response to TSLP in PBMCs", "setting": "recombinant human TSLP [3]", "result": 4.3, "unit": "nM"}, {"measurement": "Kd", "setting": "recombinant human TSLP [4]", "result": 0.0168, "unit": "nM"}]}
{"binder": "B4", "values": [{"measurement": "IC50, IL-4 biological assay (CD23 upregulation in PBMCs)", "setting": "[2]", "result": 4.7, "unit": "nM"}]}
{"binder": "B5", "values": [{"measurement": "Kd", "setting": "recombinant human TSLP [1]", "result": 0.0166, "unit": "nM"}]}
